Article PMC5389651
Where a chain is given by its changes, count along the chain named.

B1: ITS2 26-60 bulge (structured_RNA)
RNA: UGAGUCUAACUCUUUGGAGUAUACUUGAAAUUGCU
B2: ITS2 26-60 WT (structured_RNA)
RNA: UGAGUGAUACUCUUUGGAGUUAACUUGAAAUUGCU
B3: ITS2 26-60 disrupted lower (structured_RNA)
RNA: B2 RNA with G2C, A3U
B4: ITS2 26-60 lower1 (structured_RNA)
RNA: B2 RNA with G4C, U5A, A23U, C24G
B5: ITS2 26-60 lower2 (structured_RNA)
RNA: B2 RNA with G2U, A3U, U25A, U26G
B6: ITS2 26-60 disrupted upper (structured_RNA)
RNA: B2 RNA with A9C, C10A
B7: ITS2 26-51 (structured_RNA)
RNA: UGAGUGAUACUCUUUGGAGUUAACUU
B8: ITS2 26-60 paired (structured_RNA)
RNA: UGAGUGAUACUCUUUGGAGUAUCACUUGAAAUUGCU
B9: ITS2 26-60 upper (structured_RNA)
RNA: UGAGUGAUCAACUUUGGUUGUAACUUGAAAUUGCU

Columns and labels:
Assay in all cases: fluorescence polarization; 150 mM NaCl; 50 mM HEPES pH 7.5, 150 mM NaCl (250 mM in one row), room temperature, 40 min, 9 nM RNA
[1] = molecular target: T1, Nop15 81-220 (Saccharomyces cerevisiae, UniProt P53927 81-220)
T1 sequence: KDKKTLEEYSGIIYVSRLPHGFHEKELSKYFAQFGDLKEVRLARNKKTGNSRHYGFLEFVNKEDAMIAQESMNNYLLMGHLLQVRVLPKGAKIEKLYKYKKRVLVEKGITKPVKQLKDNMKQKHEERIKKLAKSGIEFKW

[2] = molecular target: T2, Nop15 81-180 (Saccharomyces cerevisiae, UniProt P53927 81-180)
T2 sequence: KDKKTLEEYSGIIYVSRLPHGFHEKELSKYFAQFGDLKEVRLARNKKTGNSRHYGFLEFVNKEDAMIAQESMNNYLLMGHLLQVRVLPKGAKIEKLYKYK

[3] = molecular target: T3, Nop15 (Saccharomyces cerevisiae, UniProt P53927 1-220)
T3 sequence: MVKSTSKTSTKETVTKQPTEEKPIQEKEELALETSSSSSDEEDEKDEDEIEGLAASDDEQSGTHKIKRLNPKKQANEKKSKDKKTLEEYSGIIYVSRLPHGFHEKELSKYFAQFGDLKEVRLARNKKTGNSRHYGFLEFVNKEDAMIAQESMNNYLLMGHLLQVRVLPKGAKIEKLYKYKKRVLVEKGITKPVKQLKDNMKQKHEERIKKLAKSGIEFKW

[4] = molecular target: T4, Nop15 81-191 (Saccharomyces cerevisiae, UniProt P53927 81-191)
T4 sequence: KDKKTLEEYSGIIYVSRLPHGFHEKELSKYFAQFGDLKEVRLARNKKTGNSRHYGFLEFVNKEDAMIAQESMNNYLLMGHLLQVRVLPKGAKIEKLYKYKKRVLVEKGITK

Row | Binder | Kd [1] | also measured
1 | B1 | 73.6 ± 5.6 nM | 
2 | B2 | 35.4 ± 1.3 nM | Kd [2]: 1050 ± 111 nM; Kd [3]: 293 ± 23 nM; Kd [4]: 209 ± 15 nM
3 | B3 | 144 ± 16 nM | 
4 | B4 | 52.1 ± 3.6 nM | 
5 | B5 | 39.3 ± 2.7 nM | 
6 | B6 | 35.5 ± 3.2 nM | 
7 | B7 | 104 ± 3.6 nM | 
8 | B8 | 89 ± 8.9 nM | 
9 | B9 | 44.9 ± 4.3 nM | 
